Measured values as given in US8129349B2, “Treatment of disease by inducing cell apoptosis” (The Regents of the University of California, priority 2000, dated 2012).
No end group written: not given here.

Experiments:
procaspase 8 = procaspase 8 (Homo sapiens, UniProt Q14790); assay: Co-immunoprecipitation of purified recombinant procaspase 8 with recombinant C/EBPβ peptides; type: binding; design: 21 amino acid linker (vector-derived) (N); purchased Alexis Biochemicals 201-041-C005; conditions: peptides 200 μM, procaspase 8 0.12 μg, quantitated by densitometry
Chain of procaspase 8 (Q14790 217-479): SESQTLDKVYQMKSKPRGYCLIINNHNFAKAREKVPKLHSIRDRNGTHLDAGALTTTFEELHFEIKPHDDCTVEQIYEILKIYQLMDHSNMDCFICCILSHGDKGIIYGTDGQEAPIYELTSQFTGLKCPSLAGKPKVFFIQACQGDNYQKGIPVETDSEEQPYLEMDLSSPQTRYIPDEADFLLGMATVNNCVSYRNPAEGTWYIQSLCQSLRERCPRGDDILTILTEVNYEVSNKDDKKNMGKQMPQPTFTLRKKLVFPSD
Method: (§1) FIG. 5 provides results showing the direct association of C/EBPβ-Glu^217 with procaspases 1 and 8. […] Enzyme activity was measured in the absence (control) or presence of C/EBPβ peptides (200 μM) for 2 h, using a procaspases 1 (1U) (not shown) and 8 (0.2 μg) activity assay. Values are presented as the mean±one half the range of duplicates. Panel C provides results for cells cultured on a collagen type I matrix and incubated with the indicated cell permeant, purified synthetic N-acetyl, C-aldehyde C/EBPβ tetra-peptides (10 μM) or with recombinant C/EBPβ-HA peptides as indicated, together with the Chariot reagent (Active Motif) for 4 h. Control cells were incubated without peptides (P<0.05 for all peptides containing Ala^217).
Purified recombinant C/EBPβ peptides, expressed as known in the art (See, Descombes et al., supra; and Buck et al. (1994), supra), and purified synthetic N-acetyl, C-aldehyde tetrapeptides (200 μM) (American Peptide Company) were assayed for their ability to inhibit the activity of purified human recombinant caspases 1 (catalogue # 201-056) and 8 (catalogue # 201-041-C005) (Alexis Biochemicals). The sequence of caspase 8 includes Ser217 through Asp479 cloned into an expression vector containing a 21 amino acid linker at the N-terminus. Thus, the prodomain (first 220 amino acids) is essentially missing. […] Caspase activity was determined by the release of the p-nitroaniline colorimetric (Alexis Biochemicals) substrate for caspase 1 (catalogue # 260-026) or 8 (catalogue # 260-045) within the linear part of the kinetic assay (Thornberry et al. (1997), supra; Stennicke and Salvesen, supra). […]
(§2) To delineate the role of C/EBPβ on the activation of procaspases 1 and 8, the self-activation of recombinant procaspases 1 and 8 was induced in vitro (Wilson et al., supra; Margolin et al., supra; and Earnshaw et al., supra), and the effect of purified recombinant C/EBPβ peptides, produced as described previously (Descombes et al., supra; and Buck et al., (1994), supra) on this process was determined. […]

procaspase 1 = biological target: T1, procaspase 1 (Homo sapiens, UniProt P29466); assay: Co-immunoprecipitation of purified recombinant procaspase 1 with recombinant C/EBPβ peptides; type: binding; conditions: peptides 200 μM, procaspase 1 0.6 U, quantitated by densitometry
T1 construct: purchased Alexis Biochemicals 201-056
T1 sequence (P29466 1-404): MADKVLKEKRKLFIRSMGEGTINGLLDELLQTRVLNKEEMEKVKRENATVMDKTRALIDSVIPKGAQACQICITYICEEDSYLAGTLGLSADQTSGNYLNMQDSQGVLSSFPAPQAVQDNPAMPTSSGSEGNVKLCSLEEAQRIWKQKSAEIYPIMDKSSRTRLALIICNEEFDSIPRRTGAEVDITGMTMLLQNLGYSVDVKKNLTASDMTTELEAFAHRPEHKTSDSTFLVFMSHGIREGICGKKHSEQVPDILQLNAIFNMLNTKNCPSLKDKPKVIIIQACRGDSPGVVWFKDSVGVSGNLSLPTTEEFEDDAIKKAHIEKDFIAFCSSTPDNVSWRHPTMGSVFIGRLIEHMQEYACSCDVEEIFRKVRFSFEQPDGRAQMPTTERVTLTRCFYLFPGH
Method: as §1
Purified recombinant C/EBPβ peptides, expressed as known in the art (See, Descombes et al., supra; and Buck et al. (1994), supra), and purified synthetic N-acetyl, C-aldehyde tetrapeptides (200 μM) (American Peptide Company) were assayed for their ability to inhibit the activity of purified human recombinant caspases 1 (catalogue # 201-056) and 8 (catalogue # 201-041-C005) (Alexis Biochemicals). The sequence of caspase 8 includes Ser217 through Asp479 cloned into an expression vector containing a 21 amino acid linker at the N-terminus. Thus, the prodomain (first 220 amino acids) is essentially missing. The fragment is cleaved at Asp385 and the active caspases are essentially identical to those identified in apoptotic cells (Stennicke and Salvesen, Meth. Enzymol., 322:91-100 (1997)). Caspase activity was determined by the release of the p-nitroaniline colorimetric (Alexis Biochemicals) substrate for caspase 1 (catalogue # 260-026) or 8 (catalogue # 260-045) within the linear part of the kinetic assay (Thornberry et al. (1997), supra; Stennicke and Salvesen, supra). Caspase 1 and 8 activity in cells was performed with colorimetric kits (catalogues # 850-211-K and 850-221-K) as described by the manufacturer (Alexis) (See also, Thornberry et al. (1997), supra). The caspase 8 inhibitor IETD was from Calbiochem (Catalogue # 218773).
as §2, with “determined. Consistent with the in vivo results described above, C/EBPβ-HA-Glu^217 and C/EBPβ 216-253-HA-Glu^217, but not C/EBPβ-HA-Ala^217, peptides associated with procaspases 1 and 8 (See, FIG. 5, Panel A).” for “determined.”

C/EBPβ216-253-HA-Glu^217: purified recombinant HA tagged C/EBPβ 216-253 peptide with Glu^217 (KEVDKLSDEYKMRRERNNIAVRKSRDKAKMRNLETQHK; also: HA tag (place not given here))
Co-immunoprecipitation of procaspase 8, fold more than the Ala^217 peptides (procaspase 8): ~12 fold
Co-immunoprecipitation of procaspase 1, fold more than the Ala^217 peptides (procaspase 1): about 7 fold

B1: C/EBPβ-HA-Glu^217: purified recombinant HA (hemagglutinin) tagged C/EBPβ-Glu^217 peptide (protein)
chain: MHRLLAWDAACLPPPPAAFRPMEVANFYYEPDCLAYGAKAARAAPRAPAAEPAIGEHERAIDFSPYLEPLAPAADFAAPAPAHHDFLSDLFADDYGAKPSKKPADYGYVSLGRAGAKAAPPACFPPPPPAALKAEPGFEPADCKRADDAPAMAAGFPFALRAYLGYQATPSGSSGSLSTSSSSSPPGTPSPADAKAAPAACFAGPPAAPAKAKAKKEVDKLSDEYKMRRERNNIAVRKSRDKAKMRNLETQHKVLELTAENERLQKKVEQLSRELSTLRNLFKQLPEPLLASAGHC
modifications: left off: small tags and cut ends
notes: purified recombinant HA (hemagglutinin) tagged C/EBPβ-Glu^217 peptide
Co-immunoprecipitation of procaspase 1, fold more than the Ala^217 peptides (procaspase 1): about 7 fold
